In assay [1] the target is T1, biotinylated CCR8 peptide (human, N-terminal biotin).
T1 construct: first 34 residues of human CCR8 plus a C-terminal K; also called biotinylated target peptide
As to the kind of experiment: ELISA, soluble Fab on biotinylated CCR8 peptide captured on streptavidin. As to the method: (§1) The wells of a microtiter plate were coated with 200 ng streptavidin protein in 100 μL Coating Buffer (0.1 M NaHCO₃, pH 8.6), and then incubated overnight at 4° C. For negative control, the wells were coated with PBS to determine non-specific binding. After shaking out the coating solution, the wells were washed three times with washing buffer (0.1% Tween 20-PBS). To prevent non-specific binding, 200 μL Blocking Buffer (3% BSA-PBS) was adding and incubated for 2 h at 37° C. After shaking out the blocking buffer, the wells were incubated with 50 ng biotinylated target peptide (SEQ ID NO: 420; see Example 10) in 100 μL Blocking Buffer for 1 h at 37° C. The control well was incubated with only 100 μL Blocking Buffer for 1 h at 37° C. After shaking out the biotinylated target peptide or buffer solution, the wells were washed 3 times with the washing buffer (0.1% Tween 20-PBS). Then 100 μL supernatant containing soluble Fab were added and incubated for 2 h at 37° C. Following three washes with washing buffer (0.1% Tween 20-PBS) for 3 times, 100 μL/well HRP conjugate of mouse anti-Flag tag mAb (Sigma A8592, 1:5000) diluted in Blocking Buffer were added and incubated for 1 h at 37° C. After washings, 3,3′,5,5′-tetramethylbenzidine (TMB) (Sigma) were added for 5 to 30 min at room temperature. The reaction was stopped by adding 50 μL/well of 1 M H₂SO₄.

Assay [2] deals with T2, streptavidin (UniProt P22629 37-163, limits assumed).
T2 construct: control well without peptide
T2 sequence (P22629 37-163 limits assumed): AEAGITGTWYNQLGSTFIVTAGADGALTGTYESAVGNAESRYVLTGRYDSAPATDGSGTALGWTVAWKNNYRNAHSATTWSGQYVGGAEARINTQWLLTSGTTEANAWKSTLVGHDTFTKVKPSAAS
In words: ELISA, soluble Fab on streptavidin-coated control well without peptide. As to the method: as §1

B1: 3-64 (Fab, V domains shown)
VH: QLQLQESGGGLVQPGGSLRLSCAASGFTFSSYAMSWVRQAPGKGLEWVSAISGSGGSTYYADSVKGRFTISRDNSKNTLYLQMNSLRAEDTAVYYCASGHSSHAFEIWGQGTTVTVSS
VL: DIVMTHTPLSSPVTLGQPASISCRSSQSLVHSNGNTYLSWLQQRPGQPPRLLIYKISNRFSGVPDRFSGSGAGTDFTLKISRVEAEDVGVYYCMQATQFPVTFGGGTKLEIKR
notes: soluble Fab from phage display library huFabL-4, Flag tag
B1: the “Optical Density” value in assay [1] came out at 3.64 OD450; in assay [2] it was 0.07 OD450.

B2: 3-54 (Fab, V domains shown)
VH: QVQLVQSGAEVKKPGASVKVSCKASGYTFSGYYIHWVRQAPGQGLEWMGWINPNSGGTNYAQNFQGRVTMTRDTSISTAYMELSRLRSDDTAMYYCARGNGAMDVWGRGTLVTVSS
VL: DVVMTQSPLSLPVTSGKPASISCRSSQSLLHSNGYNYLDWYLQKPGQSPQLLIYLGSNRASGVPDRFSGSGSGTDFTLKISRVEAEDVGVYYCMQGTYWPRTFGQGTKVEIKR
notes: as for B1
Regarding B2, the “Optical Density” value in assay [1] worked out at 2.76 OD450; in assay [2], 0.08 OD450.

B3: 3-73 (Fab, V domains shown)
VH: QVQLQQSGPGLVKPSQTLSLTCAISGDSVSSSTAAWNWIRQSPSRGLEWLGRTYYRSKWYNDYAVSVKSRITINPDTSKNQFSLQLNSVTPEDTAVYYCARAEAGGRFDYWGQGTLVTVSS
VL: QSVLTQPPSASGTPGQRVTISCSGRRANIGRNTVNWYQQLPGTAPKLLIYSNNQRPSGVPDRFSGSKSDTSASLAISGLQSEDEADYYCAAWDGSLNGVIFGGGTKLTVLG
notes: as for B1
Take B3: the “Optical Density” value in assay [1] turned out to be 2.27 OD450; in assay [2], 0.07 OD450.

B4: 3-74 (Fab, V domains shown)
VH: EVQLVQSGGGVVQPGRSLRLSCAASGFTFSNYGMHWVRQAPGKGLEWVAIISDDGSNRYYGDSVKGRFTISRDNSKNTLYLQMNSLRAEDTAVYYCAKSLTTSYYYGMDVWGKGTLVTVSS
VL: QSALTQPPSASGSPGQSVTISCTGTSSDIGGYIYVSWYQQHPGKAPKLIIYEVHKRPSGVSNRFSASKSANTASLTISGLQAEDEADYYCSSYSSSRTVLFGGGTKLTVLG
notes: as for B1
As to B4, the figures for the “Optical Density” value in assay [1] and in assay [2] were 2.81 OD450 and 0.09 OD450, respectively.

B5: 3-62 (Fab, V domains shown)
VH: QVQLQQSGPGLVKPSQTLSLTCAISGDSVSNNSAAWNWIRQSPSRGLEWLGRTYYRSKWYTDYAVSVKSRITINPDTSKNQFSLQLNSVTPEDTAVYYCARASGYSSGQVEYWGKGTLVTVSS
VL: QSVLTQPPSVSAAPGQKVTISCSGSSSNIGNNYISWYQQVPGTAPKLLIYGNNKRPSGIPARFSGSKSGTSATLDITGLQIGDEADYYCGTWESSLRAVVFGGGTKLTVLG
notes: as for B1
Take B5: the “Optical Density” value amounted to 3.6 OD450 in assay [1] and 0.07 OD450 in assay [2].

B6: 3-61 (Fab, V domains shown)
VH: QVQLVESGAEVKKPGASVKVSCKASGYTFTSYYMHWVRQAPGQGLEWMGIINPSGGGTKYAQSLQGRVTMTRDTSTSTVYMELNSLTSEDTAVYYCARGGTPSGLDYWGKGTLVTVSS
VL: DIQMTQSPSSLSASVGDRVTITCRASQGISNYLAWYQQKPGKVPKLLIYAASTLQSGVPSRFSGSGSGTDFTLTISSLQPEDVATYYCQKYNSAPLTFGGGTKVEIKR
notes: as for B1
For B6, the “Optical Density” value in assay [1] was 2.43 OD450; in assay [2], 0.06 OD450.

B7: 3-71 (Fab, V domains shown)
VH: QVQLQESGGGLVKPGRSLRLSCTASGFTFSSYAMSWVRQAPGKGLEWVSVNSGSGGTTYYADSVKGRFTISRDNAKNTLYLQMNSLRAEDTAVYYCARVSRYYDILTGYVYAFDIWGKGTLVTVSS
VL: QSVVTQPPSVSAAPGQKVSISCSGSSSNIGKNYVSWYQQLPGTAPKLLIYDNNKRPSGIPDRFSGSKSGTSATLGITGLQAEDEADYYCQSYDRSLGVVFGGGTKLTVLG
notes: as for B1
With B7, the “Optical Density” value stood at 2.4 OD450 in assay [1] and 0.08 OD450 in assay [2].

B8: 3-57 (Fab, V domains shown)
VH: QMQLVQSGAEVKKPGASVKVSCKASGYTFTSYYMHWVRQAPGQGLEWMGIINPSGGSTSYAQKFQGRVTMTRDTSTSTVYMELSSLRSEDTAVYYCARAGVRGVFGMDVWGKGTLVTVSS
VL: QSALTQPASVSGSPGQSITISCTGTSSDLGAYNYVSWYQQHPGKAPRLMIYDVSKRPSGVPDRFSGSKSDNTASLTISGLQAEDEADYYCSSYTSSSTLVFGGGTKVTVLS
notes: as for B1
For the molecule B8, the “Optical Density” value was found to be 2.39 OD450 in assay [1] and 0.1 OD450 in assay [2].

B9: 3-55 (Fab, V domains shown)
VH: QVQLQQSGPGLVKPSQTLSLTCAISGDSVSSSTAAWNWIRLSPSRGLEWLGRTYYRSKWYNDYAVSVKSRINISPDTSKNQFSLQLNSVTPEDTGVYYCARGYSRSMDVWGKGTLVTVSS
VL: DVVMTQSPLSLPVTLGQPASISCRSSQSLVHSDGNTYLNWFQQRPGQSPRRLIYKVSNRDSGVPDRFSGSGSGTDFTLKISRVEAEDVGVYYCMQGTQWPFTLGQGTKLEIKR
notes: as for B1
For the molecule B9, the “Optical Density” value in assay [1] was found to be 2.34 OD450; in assay [2], 0.07 OD450.

B10: 3-67 (Fab, V domains shown)
VH: QVQLQQSGPGLVKPSQTLSLTCAISGDSVSSNSAAWNWIRQSPSRGLEWLGRTYYRSKWYNDYAVSVKSRITINPDTSKNQFSLQLNSVTPEDTAVYYCARAARLGMDVWGKGTMVTVSS
VL: QSVVTQPPSVSAAPGQKVTISCSGTSFNIGNNYVSWYQQLPGTAPKLLIYDNIRRPSGIPERFSGSKSGTSATLGITGLQTGDEADYYCGTWDSSLRAYVFGTGTKLTVLG
notes: as for B1
Regarding B10, the “Optical Density” value was found to be 2.23 OD450 in assay [1] and 0.06 OD450 in assay [2].

B11: 3-69 (Fab, V domains shown)
VH: QVQLQQSGPGLVKPSQTLSLTCAISGDSVSSNSAAWNWIRQSPSRGLEWLGRTYYRSKWYNDYAVSVKSQITINPDTSKNQFSLQLNSVTPEDTAVYYCAREQFSGMDVWGRGTLVTVSS
VL: QSVLTQPPSASGTPGQRVTISCSGSSSNIGRNYVYWYQQLPGTAPKLLTDSNNQRPSGVPDRFSASKSGTSASLAISGLRSEDEADYYCAAWDGSLRGRVFGGGTKMTVLG
notes: as for B1
As for B11, the “Optical Density” value was 2.67 OD450 in assay [1] and 0.07 OD450 in assay [2].

B12: 3-72 (Fab, V domains shown)
VH: QVTLKESGGGVVQPGRSLRLSCAASGFTFSSYAMHWVRQAPGKGLEWVAVISYDGSNKYYADSVKGRFTISRDNSKNTLYLQMNSLRAEDTAVYYCASSLLGAFDVWGKGTLVTVSS
VL: DVVMTQSPLSLPVTPGEPASISCRSSQSLLHSNGYNYLSWYLQRPGQSPQLLMYLGSKRASGVPDRFSGSGSGTDFTLEISRVEAEDVGIYYCMQALQTPLTFGGGTKVEIKR
notes: as for B1
For B12, the “Optical Density” value in assay [1] came to 3.26 OD450; in assay [2], 0.09 OD450.

B13: 3-60 (Fab, V domains shown)
VH: QVQLVQSGGGVVQPGRSLRLSCAASGFTFSSYAMHWVRQAPGKGLEWVAVISYDGSNKYYADSVKGRFTISRDNAKNSLYLQMNSLRAEDTAVYYCAREQAARPTLGAFDIWGKGTTVTVSS
VL: DVVMTQSPLSLPVTPGEPASISCRSSQSLLHSNGNNYLAWYLQKPGQSPQLLMYLGSNRASGVPDRFSGSGSGTDFTLKISRVEAEDVGVYYCMQGIHLPLTFGGGTKVEIKR
notes: as for B1
On to B13, for which the “Optical Density” value in assay [1] was 3.66 OD450; in assay [2], 0.06 OD450.

B14: 3-63 (Fab, V domains shown)
VH: QVQLQESGGGVVQPGRSLRLSCAASGFTFSSYGMHWVRQAPGKGLEWVAVISYDGSNKYYADSVKGRFTISRDNSKNTLYLQMNSLRAEDTAVYYCARDRPGGMDVWGKGTMVTVSS
VL: DVVMTQSPLSLPVTLGQPASISCRSSQSLVHSNGNTYLTWFQQRPGQSPRRLIYKVSNRDSGVPDRFSGSGSGTDFTLKISRVEAEDVGVYYCMQGTRWYTFGQGTKLEIKR
notes: as for B1
Regarding B14, the “Optical Density” value in assay [1] worked out at 3.66 OD450; in assay [2], 0.09 OD450.

B15: 3-56 (Fab, V domains shown)
VH: EVQLVQSGGGVVQPGRSLRLSCAASGFTFSTYGMHWVRQAPGKGLEWVAVISYDGSKKYYADSVKGRFTISRDNSRNTVYLQMDSLRSEDTAVYYCAKDLSWPVRRLDVWGKGTMVTVSS
VL: EIVLTQSPLSLPVTLGQPASISCRSSQSLVYSTGNTYLNWFHQRPGQSPRRLIYQVSNRDSGVPDRFSGSGSGTDFTLKISRVEADDVGVYYCMQGTHWPPTFGQGTKVEIKR
notes: as for B1
Regarding B15, the “Optical Density” value in assay [1] was determined as 2.35 OD450; in assay [2], 0.08 OD450.

B16: 3-59 (Fab, V domains shown)
VH: GVQLVQSGGGLVQPGGSLRLSCAASGFTFSSYSMNWVRQAPGKGLEWVAVISYDESNKYYADSVKGRFTISRDNSKNTLYLQMNSLRAEDTAVYYCAPGGSYHDYWGKGTLVTVSS
VL: EIVLTQSPLSLPVTLGQPASISCRSSQSLAHSNGNTYLNWFQQRPGQSPRRLIYKVSNRDSGVPDRFSGSGSGTDFTLKISRVEADDVGVYYCMQGSHWPPTFGQGTKVEIKR
notes: as for B1
Take B16: the “Optical Density” value in assay [1] came out at 1.4 OD450; in assay [2], 0.06 OD450.

B17: 3-68 (Fab, V domains shown)
VH: QVQLQQSGPGLVKPSQTLSLTCAISGDSVSRNTAAWNWIRQSPSRGLEWLGRTYYRSKWYNDYAVSVKSRITIRPDTSKNQISLQLTSVTPEDTAVYYCARGVHNAFDIWGRGTMVTVSS
VL: ETTLTQSPGTLSLSPGERATLSCRASQSVGNRYLAWYQQKPGQAPRLLIYGASSRATGIPDRFSGSGSGTDFTLTISRLEPEDFAVYYCQQYSGSTGYTFGQGTKLEIKR
notes: as for B1
In the case of B17, the “Optical Density” value is 3.64 OD450 in assay [1] and 0.06 OD450 in assay [2].

B18: 3-75 (Fab, V domains shown)
VH: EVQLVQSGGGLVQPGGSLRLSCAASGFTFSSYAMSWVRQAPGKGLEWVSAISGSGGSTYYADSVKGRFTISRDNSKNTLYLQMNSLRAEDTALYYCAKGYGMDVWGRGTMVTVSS
VL: LPMLTQPPSVSGTPGQRVTISCSGSTSNIGSRPVNWYQQLPGTAPKLLIYRNYQRPSGVPDRFSGSKSGTSASLAISGLRSEDEADYYCAAWDDSLSGWVFGGGTKLTVLG
notes: as for B1
Turning to B18, the “Optical Density” value in assay [1] came to 3.67 OD450; in assay [2], 0.08 OD450.

(Values after patent US20260234276A1 (DOMAIN THERAPEUTICS, published 2026).)
